# Measurements from US20240360477.
# System: MCP-TGIRT (GsI-IIC RT) fusion
# Assay: cell_activity
# Conditions: control used for normalization, HEK293T
substance,measurement,value
nanoluciferase mRNA with MS2 loops hybridized to DNA primer,activity (relative to TGIRT),1
